Measurements published in patent US7005258B1, “Cdc25 genes, encoded products and uses thereof” (The National Institutes of Health, priority 1991, dated 2006).

T1: human cdc25 B (GST fusion protein) (Homo sapiens, UniProt P30305)
T1 construct: An 2.4 kb Smal fragment from the p4×1.2 plasmid encoding amino acids 32–566 was subcloned; made in house; host or cells: E. coli (bacteria)
T1 sequence (P30305 32-566 isoform P30305-2): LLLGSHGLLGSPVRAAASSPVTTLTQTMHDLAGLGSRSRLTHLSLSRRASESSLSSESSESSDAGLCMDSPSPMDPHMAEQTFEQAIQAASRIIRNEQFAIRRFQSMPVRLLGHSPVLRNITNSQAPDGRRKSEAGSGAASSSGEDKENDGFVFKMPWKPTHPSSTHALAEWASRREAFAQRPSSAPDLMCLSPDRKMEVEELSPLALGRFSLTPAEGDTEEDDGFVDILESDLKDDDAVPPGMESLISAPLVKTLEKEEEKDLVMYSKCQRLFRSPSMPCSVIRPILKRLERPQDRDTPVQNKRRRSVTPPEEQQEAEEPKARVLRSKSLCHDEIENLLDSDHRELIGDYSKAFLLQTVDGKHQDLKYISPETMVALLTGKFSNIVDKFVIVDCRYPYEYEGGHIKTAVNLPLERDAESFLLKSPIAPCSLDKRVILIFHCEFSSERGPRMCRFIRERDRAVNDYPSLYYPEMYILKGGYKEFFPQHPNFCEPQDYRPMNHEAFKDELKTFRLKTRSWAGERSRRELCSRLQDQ

T2: human cdc25 A (GST fusion protein) (Homo sapiens, UniProt P30304)
T2 construct: A plasmid containing the entire open reading frame of human cdc25 A was digested with Ncol (at amino acid 1); made in house; host or cells: E. coli (bacteria)
T2 sequence (P30304 1-524): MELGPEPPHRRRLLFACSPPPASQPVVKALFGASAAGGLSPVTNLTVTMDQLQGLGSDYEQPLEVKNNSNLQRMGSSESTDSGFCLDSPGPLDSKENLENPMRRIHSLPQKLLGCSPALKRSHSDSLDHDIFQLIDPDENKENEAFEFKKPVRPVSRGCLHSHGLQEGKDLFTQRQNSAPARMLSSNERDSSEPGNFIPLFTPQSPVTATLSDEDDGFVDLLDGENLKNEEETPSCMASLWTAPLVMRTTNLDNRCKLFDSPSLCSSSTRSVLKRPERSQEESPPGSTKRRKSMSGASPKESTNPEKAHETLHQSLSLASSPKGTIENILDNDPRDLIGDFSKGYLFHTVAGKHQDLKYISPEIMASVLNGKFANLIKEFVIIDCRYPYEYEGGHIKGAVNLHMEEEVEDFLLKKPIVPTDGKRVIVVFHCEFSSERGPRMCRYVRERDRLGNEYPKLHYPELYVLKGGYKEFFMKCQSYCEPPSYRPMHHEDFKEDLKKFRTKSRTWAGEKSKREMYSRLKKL

B1: p13: p13 protein encoded by the suc1 gene, an essential subunit of the cdc2 protein kinase (protein)
chain: MSKSGVPRLLTASERERLEPFIDQIHYSPRYADDEYEYRHVMLPKAMLKAIPTDYFNPETGTLRILQEEEWRGLGITQSLGWEMYEVHVPEPHILLFKREKDYQMKFSQQRGG
B2: D: murine cyclin D1 (CYL1) expressed as fusion protein with GST (protein)
chain: MEHQLLCCEVETIRRAYPDTNLLNDRVLRAMLKTEETCAPSVSYFKCVQKEIVPSMRKIVATWMLEVCEEQKCEEEVFPLAMNYLDRFLSLEPLKKSRLQLLGATCMFVASKMKETIPLTAEKLCIYTDNSIRPEELLQMELLLVNKLKWNLAAMTPHDFIEHFLSKMPEADENKQTIRKHAQTFVALCATDVKFISNPPSMVAAGSVVAAMQGLNLGSPNNFLSCYRTTHFLSRVIKCDPDCLRACQEQIEALLESSLRQAQQNVDPKATEEEGEVEEEAGLACTPTDVRDVDI
modifications: left off: a dimerising Fc or GST

Tests used:
[1] = target: T1, human cdc25 B (GST fusion protein); assay: cdc25 B tyrosine phosphatase assay, pH 8.8; assay type: biochemical; conditions: p13 at 25 mM, in the presence or absence of cyclin B
[2] = target: T2, human cdc25 A (GST fusion protein); assay: cdc25 A tyrosine phosphatase assay with 32P-RCML substrate; assay type: biochemical
Method: A plasmid containing the entire open reading frame of human cdc25 A was digested with Ncol (at amino acid 1), blunt ended with T4 DNA polymerase, heat inactivated, extracted with phenolchlorophorm, ethanol precipitated and digested with EcoRI. The resultant 2.0 kb fragment was gel-purified and ligated into pGEX-2T Smal/EcoRI digested vector. Resultant plasmid upon transformation into bacteria gave rise to a 90 kd IPTG-inducible protein. […] Absorbance at 410 nm was determined using a molar absorptivity of 1.78×10^4M^−1 cm^−1 to calculate the concentration of the p-nitrophenolate ion generated in the assay. […]
Reduced carboxamidomethylated and maleylated lysozyme (RCML) was obtained from N. Tonks in a ^32P-tyrosine phosphorylated form. […] Reactions ([…]) were performed at 30° C. for 10 or 20 min, and after addition of the fatty acid free bovine serum albumin (BSA, Sigma) to 2 mg/ml, proteins were precipitated with […] of 20% trichloroacetic acid, vortexed, incubated at −70° C. for 5 min, thawed, spun in an Eppendorf centrifuge for 5–10 min at the maximal speed and […] supernatants were counted in 2 ml Aquasol (NEN) for 10 min. […]

| Molecule | effect on the activity of cdc25 B [1] | inhibition of the endogenous phosphatase activity of cdc25 A ([2]; p13 at 25 mM, without cyclin B1) | effect on the endogenous phosphatase activity of cdc25 A ([2]; RCML substrate, 10 pmoles of cyclin and cdc25 protein) |
| --- | --- | --- | --- |
| B1 | no effect | 2–3 fold |  |
| B2 |  |  | neither stimulatory nor inhibitory effect |
